# B1: Mycobacterium tuberculosis MenD (2-succinyl-5-enolpyruvyl-6-hydroxy-3-cyclohexadiene-1-carboxylate synthase, SEPHCHC synthase) (enzyme)
# chain: MNPSTTQARVVVDELIRGGVRDVVLCPGSRNAPLAFALQDADRSGRIRLHVRIDERTAGYLAIGLAIGAGAPVCVAMTSGTAVANLGPAVVEANYARVPLIVLSANRPYELLGTGANQTMEQLGYFGTQVRASISLGLAEDAPERTSALNATWRSATCRVLAAATGARTANAGPVHFDIPLREPLVPDPEPLGAVTPPGRPAGKPWTYTPPVTFDQPLDIDLSVDTVVISGHGAGVHPNLAALPTVAEPTAPRSGDNPLHPLALPLLRPQQVIMLGRPTLHRPVSVLLADAEVPVFALTTGPRWPDVSGNSQATGTRAVTTGAPRPAWLDRCAAMNRHAIAAVREQLAAHPLTTGLHVAAAVSHALRPGDQLVLGASNPVRDVALAGLDTRGIRVRSNRGVAGIDGTVSTAIGAALAYEGAHERTGSPDSPPRTIALIGDLTFVHDSSGLLIGPTEPIPRSLTIVVSNDNGGGIFELLEQGDPRFSDVSSRIFGTPHDVDVGALCRAYHVESRQIEVDELGPTLDQPGAGMRVLEVKADRSSLRQLHAAIKAAL
# Molecular target: the molecule itself
# Assay: crystal structure
protein,measurement,value
B1,stoichiometry N,4
